Results as given in patent US20250270324A1 (INVOX PHARMA, published 2025).

Assays:
[1] = target: PD-L1 on PD-L1 cells (Promega, CS178103; PD1/PD-L1 Blockade Bioassay J1250/J1255) (UniProt Q9NZQ7 19-290); assay: cell-based or functional assay
[2] = target: T1, human PD-L1-rCD4-His (human); assay: SPR, IgG1 from culture supernatant
T1 construct: Human PD-L1 fused to the monomeric C-terminal rat CD4 domains 3 and 4 tag and His tag; made in HEK293; The entry as printed begins with the signal peptide (MRIF...); also called hPD-L1-rCD4-His; hu-PD-L1-rCD4-His
T1 sequence (chain, as listed by the source limits assumed): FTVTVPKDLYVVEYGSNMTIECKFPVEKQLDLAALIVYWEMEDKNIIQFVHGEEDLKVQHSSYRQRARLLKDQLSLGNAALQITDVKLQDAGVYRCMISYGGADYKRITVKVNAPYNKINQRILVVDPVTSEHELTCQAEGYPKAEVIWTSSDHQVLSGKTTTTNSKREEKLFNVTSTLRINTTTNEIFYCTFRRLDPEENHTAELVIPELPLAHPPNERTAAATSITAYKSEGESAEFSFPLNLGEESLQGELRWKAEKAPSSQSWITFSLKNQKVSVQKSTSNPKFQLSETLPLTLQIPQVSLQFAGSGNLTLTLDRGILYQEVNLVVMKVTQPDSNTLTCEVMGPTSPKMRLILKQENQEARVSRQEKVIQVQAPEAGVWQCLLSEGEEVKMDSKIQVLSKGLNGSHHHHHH

[3] = target: T2, Cyno PD-L1-rCD4-His (cynomolgus); assay: SPR, IgG1 from culture supernatant
T2 construct: The entry as printed begins with the signal peptide; also called cynomolgus PD-L1-rCD4-His
T2 sequence (chain, as listed by the source limits assumed): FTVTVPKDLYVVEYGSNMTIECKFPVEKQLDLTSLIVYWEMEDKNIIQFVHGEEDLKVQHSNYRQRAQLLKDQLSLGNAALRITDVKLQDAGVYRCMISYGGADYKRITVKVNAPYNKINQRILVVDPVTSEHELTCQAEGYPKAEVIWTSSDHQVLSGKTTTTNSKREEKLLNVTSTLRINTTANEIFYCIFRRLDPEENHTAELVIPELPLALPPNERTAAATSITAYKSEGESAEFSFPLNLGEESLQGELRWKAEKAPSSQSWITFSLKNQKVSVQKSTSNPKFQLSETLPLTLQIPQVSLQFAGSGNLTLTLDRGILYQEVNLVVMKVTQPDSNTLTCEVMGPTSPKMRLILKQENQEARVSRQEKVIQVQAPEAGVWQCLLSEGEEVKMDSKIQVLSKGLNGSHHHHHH

Chain of PD-L1 on PD-L1 cells (Promega, CS178103; PD1/PD-L1 Blockade Bioassay J1250/J1255) (Q9NZQ7 19-290): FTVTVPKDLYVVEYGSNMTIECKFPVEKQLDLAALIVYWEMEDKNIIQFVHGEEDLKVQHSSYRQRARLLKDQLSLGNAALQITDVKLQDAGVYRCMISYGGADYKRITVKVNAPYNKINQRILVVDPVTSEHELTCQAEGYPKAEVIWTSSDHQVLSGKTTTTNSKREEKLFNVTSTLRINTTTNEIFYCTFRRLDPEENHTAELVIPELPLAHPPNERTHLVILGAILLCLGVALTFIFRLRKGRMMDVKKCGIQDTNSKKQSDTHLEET

| Binder | IC50 (nM), PD1/PD-L1 Blockade Bioassay [1] [nM] | Kd [2] [nM] | Kd [3] [nM] |
| --- | --- | --- | --- |
| G1/280_02_G02_NS (antibody, human IgG1, IgG1 without LALA, lambda light chain; NG to NS variant of G1/280_02_G02) heavy: not shown light: QSALTQPASVSGSPGQSITISCTGTSSDVGGYNSVSWYQQFPGKAPKLMIFEVTNRPSGVSDRFSGSKSDNTASLTISGLQAEDEAEYYCSSFKRGSTLVVFGGGTKLTVLGQPAAAPSVTLFPPSSEELQANKATLVCLISDFYPGAVTVAWKADSSPVKAGVETTTPSKQSNNKYAASSYLSLTPEQWKSHRSYSCQVTHEGSTVEKTVAPTECS | 0.51 | 1.2 | 1.8 |
| G1/929_01_A11 (antibody, human IgG1, IgG1; said to be the same as G1AA/G12v2 but without LALA) heavy: not shown light: DIQMTQSPSTLSASVGDRVTITCRASQSISGRLAWYQQKPGKAPNLLIYEASNLESGVPSRFSGSGSGTEFTLTISSLQPEDFATYYCQQSYSWPRTFGQGTKVEIKRTAAAAPSVFIFPPSDEQLKSGTASVVCLLNNFYPREAKVQWKVDNALQSGNSQESVTEQDSKDSTYSLSSTLTLSKADYEKHKLYACEVTHQGLSSPVTKSFNRGEC |  | 0.51 | 0.57 |
| G1/929_01_A01 (antibody, human IgG1, V domains shown, IgG1; The heavy chain as printed has T28) VH: EVQLVQSGAEVKRPGASVKVSCKASGYTFTSYGISWVRQAPGQGLEWMGWISAYGGSTNYAQKLQGRVTMTTDTSTSTAYMELRSLRSDDTAVYYCARDLFPTIFGVSYYYYWGQGTLVTVSS VL: DIQMTQSPSTLSASVRDRVIITCRASQSIGNRLAWYQHKPGKAPKLLIYEASTSETGVPSRFSGSGSGTDFTLTISSLQPEDFATYYCQQSYSTPYTFGQGTKLEIKR |  | 2.66 | 3.18 |
| G1/929_01_A05 (antibody, human IgG1, V domains shown, IgG1) VH: EVQLVQSGAEVKRPGASVKVSCKASGYTFTSYGISWVRQAPGQGLEWMGWISAYSGGTNYAQKLQGRVTMTTDTSTSTAYMELRSLRSDDTAVYYCARDLFPTIFGVSYYYYWGQGTLVTVSS VL: DIQMTQSPSTLSASVGDRVTITCRASQSISGRLAWYQQKPGKAPNLLIYEASNLESGVPSRFSGSGSGTEFTLTINSLQPDDFATYYCQQANTFPRVSFGGGTKVEIKR |  | 0.55 | 0.62 |
| G1/929_01_A04 (antibody, human IgG1, V domains shown, IgG1; GGST variant of G1/894_08_A05) VH: EVQLVQSGAEVKRPGASVKVSCKASGYTFTSYGISWVRQAPGQGLEWMGWISAYGGSTNYAQKLQGRVTMTTDTSTSTAYMELRSLRSDDTAVYYCARDLFPTIFGVSYYYYWGQGTLVTVSS VL: DIQMTQSPSTLSASVGDRVTITCRASQSISGRLAWYQQKPGKAPNLLIYEASNLESGVPSRFSGSGSGTEFTLTINSLQPDDFATYYCQQANTFPRVSFGGGTKVEIKR |  | 0.47 | 0.6 |
| G1/894_08_A05 (antibody, human IgG1, V domains shown, IgG1 without LALA, kappa light chain) VH: EVQLVQSGAEVKRPGASVKVSCKASGYTFTSYGISWVRQAPGQGLEWMGWISAYNSNTNYAQKLQGRVTMTTDTSTSTAYMELRSLRSDDTAVYYCARDLFPTIFGVSYYYYWGQGTLVTVSS VL: DIQMTQSPSTLSASVGDRVTITCRASQSISGRLAWYQQKPGKAPNLLIYEASNLESGVPSRFSGSGSGTEFTLTINSLQPDDFATYYCQQANTFPRVSFGGGTKVEIKR |  | 0.42 | 0.57 |
| G1/929_01_A06 (antibody, human IgG1, V domains shown, IgG1) VH: EVQLVQSGAEVKRPGASVKVSCKASGYTFTSYGISWVRQAPGQGLEWMGWISAYSGNANYAQKLQGRVTMTTDTSTSTAYMELRSLRSDDTAVYYCARDLFPTIFGVSYYYYWGQGTLVTVSS VL: DIQMTQSPSTLSASVGDRVTITCRASQSISGRLAWYQQKPGKAPNLLIYEASNLESGVPSRFSGSGSGTEFTLTINSLQPDDFATYYCQQANTFPRVSFGGGTKVEIKR |  | 0.45 | 0.58 |
| G1/929_01_A03 (antibody, human IgG1, V domains shown, IgG1) VH: EVQLVQSGAEVKRPGASVKVSCKASGYTFTSYGISWVRQAPGQGLEWMGWISAYSGNANYAQKLQGRVTMTTDTSTSTAYMELRSLRSDDTAVYYCARDLFPTIFGVSYYYYWGQGTLVTVSS VL: DIQMTQSPSTLSASVRDRVIITCRASQSIGNRLAWYQHKPGKAPKLLIYEASTSETGVPSRFSGSGSGTDFTLTISSLQPEDFATYYCQQSYSTPYTFGQGTKLEIKR |  | 2.66 | 3.31 |
| G1/929_01_A07 (antibody, human IgG1, V domains shown, IgG1; GGST variant of G1/894_08_E05) VH: EVQLVQSGAEVKRPGASVKVSCKASGYTFTSYGISWVRQAPGQGLEWMGWISAYGGSTNYAQKLQGRVTMTTDTSTSTAYMELRSLRSDDTAVYYCARDLFPTIFGVSYYYYWGQGTLVTVSS VL: DIQMTQSPSTLSASVGDRVTITCRASQSISGRLAWYQQKPGKAPNLLIYEASNLESGVPSRFSGSGSGTEFTLTISSLQPEDFATYYCQQSYSTPRVTFGQGTKVEIKR |  | 0.47 | 0.59 |

More lines, now with the values ahead:

| IC50 (nM), PD1/PD-L1 Blockade Bioassay [1] [nM] | Kd [2] [nM] | Kd [3] [nM] | Binder |
| --- | --- | --- | --- |
|  | 0.42 | 0.6 | G1/929_01_A10 (antibody, human IgG1, V domains shown, IgG1) VH: EVQLVQSGAEVKRPGASVKVSCKASGYTFTSYGISWVRQAPGQGLEWMGWISAYGGSTNYAQKLQGRVTMTTDTSTSTAYMELRSLRSDDTAVYYCARDLFPTIFGVSYYYYWGQGTLVTVSS VL: DIQMTQSPSTLSASVGDRVTITCRASQSISGRLAWYQQKPGKAPNLLIYEASNLESGVPSRFSGSGSGTEFTLTISSLQPEDFATYYCQQSYSWPRTFGQGTKVEIKR |
|  | 0.51 | 0.66 | G1/929_01_A12 (antibody, human IgG1, V domains shown, IgG1) VH: EVQLVQSGAEVKRPGASVKVSCKASGYTFTSYGISWVRQAPGQGLEWMGWISAYSGNANYAQKLQGRVTMTTDTSTSTAYMELRSLRSDDTAVYYCARDLFPTIFGVSYYYYWGQGTLVTVSS VL: DIQMTQSPSTLSASVGDRVTITCRASQSISGRLAWYQQKPGKAPNLLIYEASNLESGVPSRFSGSGSGTEFTLTISSLQPEDFATYYCQQSYSWPRTFGQGTKVEIKR |
|  | 0.5 | 0.65 | G1/929_01_A08 (antibody, human IgG1, IgG1; SGGT variant of G1/894_08_E05; said to be the same as G1AA/E05v2 but without the LALA mutation) heavy: not shown light: DIQMTQSPSTLSASVGDRVTITCRASQSISGRLAWYQQKPGKAPNLLIYEASNLESGVPSRFSGSGSGTEFTLTISSLQPEDFATYYCQQSYSTPRVTFGQGTKVEIKRTAAAAPSVFIFPPSDEQLKSGTASVVCLLNNFYPREAKVQWKVDNALQSGNSQESVTEQDSKDSTYSLSSTLTLSKADYEKHKLYACEVTHQGLSSPVTKSFNRGEC |
|  | 0.49 | 0.57 | G1/929_01_A09 (antibody, human IgG1, V domains shown, IgG1; SGNA variant of G1/894_08_E05) VH: EVQLVQSGAEVKRPGASVKVSCKASGYTFTSYGISWVRQAPGQGLEWMGWISAYSGNANYAQKLQGRVTMTTDTSTSTAYMELRSLRSDDTAVYYCARDLFPTIFGVSYYYYWGQGTLVTVSS VL: DIQMTQSPSTLSASVGDRVTITCRASQSISGRLAWYQQKPGKAPNLLIYEASNLESGVPSRFSGSGSGTEFTLTISSLQPEDFATYYCQQSYSTPRVTFGQGTKVEIKR |
